# Source: doi:10.1101/2025.11.17.688803
# Biological target: endogenous LRBA of mouse embryonic fibroblasts (mouse (endogenous in MEFs)) (UniProt Q9ESE1)
# Test: SEC
substance,measurement,value
endogenous LRBA of mouse embryonic fibroblasts (from UniProt Q9ESE1 1-2856) (natural protein),stoichiometry N,2
